The target of test [1] is GIPR-SmBiT (glucose-dependent insulinotropic polypeptide receptor tagged at the C-terminus with SmBiT) (UniProt P48546). The test can be described thus: split reporter.
Test [2] deals with GLP-1R-SmBiT (glucagon-like peptide-1 receptor tagged at the C-terminus with SmBiT) (UniProt P43220). The test can be described thus: split reporter.
UniProt P43220, sequence (P43220 24-463): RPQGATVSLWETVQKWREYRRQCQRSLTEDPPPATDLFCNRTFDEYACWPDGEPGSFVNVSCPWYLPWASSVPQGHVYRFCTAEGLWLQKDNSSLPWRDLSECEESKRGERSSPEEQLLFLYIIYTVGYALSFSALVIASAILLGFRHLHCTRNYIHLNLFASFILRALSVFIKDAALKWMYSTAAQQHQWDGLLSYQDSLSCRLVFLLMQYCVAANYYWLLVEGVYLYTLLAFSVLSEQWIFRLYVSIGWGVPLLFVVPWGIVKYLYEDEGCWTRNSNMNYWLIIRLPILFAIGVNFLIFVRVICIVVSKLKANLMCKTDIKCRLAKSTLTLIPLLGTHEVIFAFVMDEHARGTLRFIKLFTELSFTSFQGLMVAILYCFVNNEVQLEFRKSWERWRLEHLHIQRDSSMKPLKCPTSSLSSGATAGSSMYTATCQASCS

UniProt P48546, sequence (P48546 22-466): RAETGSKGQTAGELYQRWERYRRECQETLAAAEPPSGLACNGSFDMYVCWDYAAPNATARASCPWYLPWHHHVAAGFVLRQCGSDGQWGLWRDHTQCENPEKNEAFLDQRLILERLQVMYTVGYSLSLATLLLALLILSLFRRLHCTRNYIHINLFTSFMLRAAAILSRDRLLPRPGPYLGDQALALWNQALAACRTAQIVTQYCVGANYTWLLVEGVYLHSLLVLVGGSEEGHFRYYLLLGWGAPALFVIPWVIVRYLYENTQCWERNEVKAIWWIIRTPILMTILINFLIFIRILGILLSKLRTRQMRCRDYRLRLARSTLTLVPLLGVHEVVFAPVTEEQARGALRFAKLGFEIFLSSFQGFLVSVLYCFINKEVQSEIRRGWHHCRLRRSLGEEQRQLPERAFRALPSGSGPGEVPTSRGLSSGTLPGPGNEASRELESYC

LgBiT-mini-Gs: the t1/2 of ligand-induced recruitment came out at 7.1 min in test [1] and 1.5 min in test [2].

These data come from doi:10.1101/2020.04.26.062372.
